Assay in all cases: RepliTope peptide microarray, Cy5 fluorescence
The target in experiment [1] is epitope sequence SEQ ID No 17 (…) (SARS-CoV-2).
In experiment [2] the target is epitope sequence SEQ ID No 19 (…) (SARS-CoV-2).
Experiment [3] concerns the target epitope sequence SEQ ID No 15 (…) (SARS-CoV-2).
Experiment [4] concerns the target epitope sequence SEQ ID No 35 (…) (SARS-CoV-2).
Experiment [5] concerns the target epitope sequence SEQ ID No 18 (…) (SARS-CoV-2).
The target in experiment [6] is epitope sequence SEQ ID No 37 (…) (SARS-CoV-2).

B1: hcAb B10 (clone B10), camelid full length IgG2 heavy chain only antibody (antibody)
heavy: DVQLQESGGGLVQPGGSLRLSCAASGDINTIGTMNWFRQAPGKGREFVALITSGGTTNYADSVKGRFTVSRDNAKNTVYLQMNSLKPEDTAVYHCYGADHYSDYWGQGTQVTVSSEPKTPKPQPQPQPQPNPTTESKCPKCPAPELLGGPSVFIFPPKPKDVLSISGRPEVTCVVVDVGQEDPEVSFNWYIDGAEVRTANTRPKEEQFNSTYRVVSVLPIQHQDWLTGKEFKCKVNNKALPAPIEKTISKAKGQTREPQVYALAPHREELAKDTVSVTCLVKGFYPPDINVEWQRNRQPEPEGTYATTPPQLDNDGTYFLYSKLSVGKNTWQRGETFTCVVMHETLHNHYTQKSISQS
As for B1, the average signal intensity (mean pixel value) in experiment [1] stood at 45000; in experiment [2], 2400; in experiment [3] it was 23000; in experiment [4] it was 10500; in experiment [5] it was 32800; in experiment [6], 13900.

For the origin of these results see patent publication US20250271431A1.
